Laboratory results reported in patent US9688764B2, “Methods of treating breast cancer by administering anti-human prolactin receptor (PRLR) antibodies” (REGENERON PHARMACEUTICALS, INC., priority 2013, dated 2017).
Like-named read-outs stand apart in the source and are kept apart here.

B1: H1H6782P-SMCC-DM1 (conjugate)
VH: EVQLVESGGGLVQPGRSLRLSCAASGFTFDDYAMHWVRQAPGKGLEWVSGIIWNSGHIGYGDSVKGRFTISRDNAKKSLYLQMNSLRAEDTALYYCARDSGRYQSYFDYWGQGTLVTVSS
VL: DIQMTQSPSTLSASVGDRVTITCRASHIISSWLAWYQQKPGKAPKVLIFKASSLESGVPSRFSGSGSGTEFTLTISSLQPDDFATYYCQQYNTYSRTFGQGTKVEIK
B2: H1H6953N-mc-VC-PAB-MMAE (conjugate)
VH: EVQLLESGGGLVQPGGTLRLSCAASGFTFSAYAMSWVRQAPGKGLEWVSSINVRAGDTYYADSVKGRFTISRDNSKNTLFLLMNSLRAEDTAAYYCAKARYSSNWGFDFWGQGTLVTVSS
VL: DIVMTQSPDSLTVSLGARTTINCQSSQTILHSSNNHNYLAWYQQKPGLPPKLLIYWSSTRESGVPDRFSGSGSGTDFTLTISSLQAEDVAIYYCQQYSNTPYTFGQGTKLEIN
B3: H1H6765P-SMCC-DM1 (conjugate)
VH: EVQLVESGGGVVRPGGSLRLSCVGSGFSFDDHGMNWVRQGPGKGLEWVSGFNWNGGSTNYAESVKGRFTISRDNARNSLFLQMNSLRAEDTALYYCVRGRSGWFNDAFDVWGPGTMVTVSS
VL: EIVLTQSPGTLSLSPGERATLSCRASQTINSNYLAWYRQKPGQTPRLLIYGTSSRATGIPDRFSGSGSGTDFSLTISRLEPEDFAVFYCQQYAGLPTFGPGTKVDIK
B4: H1H6953N-mc-VC-PAB-MMD (conjugate)
VH: B2 VH
VL: B2 VL
B5: H1H6953N-mc-VC-PAB-MeNHC3-May (conjugate)
VH: B2 VH
VL: B2 VL
B6: H1H6958N2-SPDB-DM4 (conjugate)
VH: QVQLVESGGGVVQPGRSLRLSCGASGFTFRNYGMQWVRQGPGKGLEWVTLISFDGNDKYYADSVKGRFTISRDNSKNTLFLQMNSLRTEDTAVYYCARGGDFDYWGQGTLVTVSS
VL: DIQMTQSPSSLSASVGDRVTITCRASQDIRKDLGWYQQKPGKAPKRLIYAASSLHSGVPSRFSGSGSGTEFTLTISSLQPEDFATYYCLQHNSYPMYTFGQGTKLEIK
B7: H1H6975P-SMCC-DM1 (conjugate)
VH: EVHLVESGGGLVQPGGSLRLSCAASGFTFSSYEMNWVRQTPGKGLEWISHISSRSVIIYYADSVKGRFTISRDNAKNSLFLQMNSLRAEDTAVYFCAGITIFGIPEYWGQGTLVTVSS
VL: EIVLTQSPATLSLSPGERATLSCRASQSVSSYFAWYQQKPGQAPRLLIYDASSRATGIPTRFSGSGSGTDFTLTISSLEPEDFAVYYCQQRSSWPITFGQGTRLEIK
B8: H1H6975P-mc-VC-PAB-MMD (conjugate)
VH: B7 VH
VL: B7 VL
B9: H1H6782P-mc-VC-PAB-MMD (conjugate)
VH: B1 VH
VL: B1 VL
B10: H1H6782P-mc-VC-PAB-MeNHC3-May (conjugate)
VH: B1 VH
VL: B1 VL

What was measured:
HEK293 (293) cells = experiment: Cell viability (cell kill) assay; format: cell-based
Text: (§1) PRLR-overexpressing cells, including HEK293, PC3, MCF7 and NCI-N87, were generated to assess the ability of anti-PRLR conjugated antibodies to reduce cell viability. For comparative purposes, PC3 and T47D cells with overexpressed ErbB2 were also generated, as well as an MCF7 cell line over-expressing both hPRLR and hErbB2. Briefly, Lipofectamine® 2000-mediated transfection methodology was utilized to generate HEK293 cells expressing human PRLR (HEK293/hPRLR) or human ErbB2 (HEK293/hErbB2). Lipofectamine LTX with Plus Reagent was used to generate PC3 cells expressing human PRLR (PC3/hPRLR) or human ErbB2 (PC3/hErbB2). Lentiviral-mediated transduction was utilized to generate MCF7 cells expressing human PRLR (MCF7/hPRLR), NCI-N87 cells expressing human PRLR (NCI-N87/hPRLR), T47D cells over-expressing human ErbB2 (T47D/hErbB2), and MCF7 cells expressing both human PRLR and human ErbB2 (MCF7/hPRLR/hErbB2). All lines were selected for at least two weeks in complete growth media plus appropriate selection reagents. Stably expressing populations were enriched for PRLR expression via FACS using the anti PRLR antibody Control I.
(§2) Next, the ability of anti-PRLR-DM1 antibody-drug conjugates (i.e., anti-PRLR antibodies conjugated to DM1 via a non-cleavable linker [SMCC]) to reduce cell viability was determined using in vitro cell based assays. Cells were seeded in PDL-coated 96 well plates at 1500 to 10000 cells per well in complete growth media and allowed to grow overnight. For cell viability curves, ADCs or free DM1 (as the methyl disulfide derivative DM1-SMe) were added to the cells at final concentrations ranging from 500 nM to 5 pM and incubated for 3 days. The 293, PC3 and T47D cells were incubated with CCK8 (Dojindo, Rockville, Md.) for the final 1-3 hours and the absorbance at 450 nm (OD450) was determined on a Flexstation3 (Molecular Devices, Sunnyvale, Calif.). MCF7 cells were treated with Hoechst 33342 nuclear stain while being fixed with 4% formaldehyde. Images were acquired on the ImageXpress micro XL (Molecular Devices, Sunnyvale, Calif.) and nuclear counts were determined via Columbus image analysis software (Perkin Elmer, Shelton, Conn.). Background OD450 values (PC3, 293, and T47D) or nuclear counts (MCF7) from digitonin (40 nM) treated cells was subtracted from all wells and viability was expressed as a percentage of the untreated controls. IC50 values were determined from a four-parameter logistic equation over a 10-point response curve (GraphPad Prism).

MCF7 (MCF7/ATCC) cells = experiment: Cell viability (cell kill) assay, nuclear counts; format: cell-based; conditions: MCF7/ATCC
Text: as §1, §2
(§3) Finally, the potency of anti-PRLR antibodies conjugated to DM1 via the non-cleavable linker SMCC was compared to the cell killing potency of anti-PRLR antibodies conjugated to MMAE via the cleavable linker: mc-vc-PAB (available from Concortis, San Diego, Calif.). Cells used in this experiment were PC3, PC3/hPRLR, MCF7/ATCC and MCF7/PRLR.
(§4) Additional toxins (DM4, MeNHC3-May, and MMD) conjugated to anti-PRLR antibodies were also tested in T47D and MCF7/hPRLR cell lines, and results are summarized in Tables 19 (293 and T47D cell killing) and 20 (MCF7/ATCC and MCF7/PRLR cell killing). (ND=not detected).

[1] = tested on: MCF7/hPRLR (MCF7/PRLR) cells; experiment: Cell viability (cell kill) assay, nuclear counts; format: cell-based, human
Text: as §1, §2, §3, §4

T47D cells = experiment: Cell viability (cell kill) assay; format: cell-based; conditions: T47D; for IC50: read-out: IC50
Protocol: as §2
Additionally, the impact of the PRLR ligand, PRL, on PRLR-SMCC-DM1 cell kill in T47D cells was assessed. T47D cells were incubated simultaneously with PRL (15 nM) and either a non-blocking anti PRLR antibody (H1H6782P) or a receptor blocking antibody (H1H6958N2).
as §4

PC3/hPRLR cells = experiment: Cell viability (cell kill) assay; format: cell-based, human; conditions: PC3/hPRLR; Table 18
Text: as §1, §2, §3

Molecule | % Kill (HEK293 (293) cells; 293, Table 19) [%] | IC50 (HEK293 (293) cells; 293, Table 19) [nM] | % Kill (MCF7 (MCF7/ATCC) cells; Table 20) [%] | IC50 (MCF7 (MCF7/ATCC) cells; Table 20) [nM] | % Kill ([1]; Table 20) [%] | IC50 ([1]; Table 20) [nM] | % Kill (T47D cells; Table 19) [%] | IC50 (T47D cells; Table 19) [nM] | IC50 (HEK293 (293) cells; HEK293, Table 13, + 15 nM PRL) [nM] | IC50 (HEK293 (293) cells; HEK293, Table 13, without PRL) [nM] | IC50 (T47D cells; Table 13, + 15 nM PRL) [nM] | IC50 (T47D cells; Table 13, without PRL) [nM] | % Kill (PC3/hPRLR cells) [%] | IC50 (PC3/hPRLR cells) [nM] | % Kill (MCF7 (MCF7/ATCC) cells; Table 18) [%] | IC50 (MCF7 (MCF7/ATCC) cells; Table 18) [nM] | % Kill ([1]; Table 18) [%] | IC50 ([1]; Table 18) [nM]
COc1cc2cc(c1Cl)N(C)C(=O)CC(OC(=O)C(C)N(C)C(=O)CCSSC)C1(C)OC1C(C)C1CC(O)(NC(=O)O1)C(OC)C=CC=C(C)C2 (stereo not drawn) [Free DM1 (Me-SS-May)] | 95 | 1.2 | 80 | 1.3 | 80 | 0.8 | 100 | 1.5 | – | – | – | – | – | – | – | – | – | –
B1 | 80 | 120 | 70 | 250 | 80 | 0.3 | 100 | 3 | 70 | 90 | 2 | 1 | – | – | – | – | – | –
B2 | – | – | 40 | 150 | 85 | 0.1 | 80 | 1 | – | – | – | – | 80 | 0.2 | 42 | 150 | 85 | 0.1
B3 | 100 | 85 | 70 | 150 | 90 | 0.3 | 90 | 1 | – | – | – | – | 83 | 0.3 | 71 | 90 | 81 | 0.1
B4 | 70 | – | 50 | – | 90 | 0.2 | 90 | 1 | – | – | – | – | – | – | – | – | – | –
B5 | – | – | 60 | 150 | 80 | 0.2 | 90 | 1 | – | – | – | – | – | – | – | – | – | –
B6 | – | – | 80 | 25 | 90 | 0.8 | 100 | 1 | – | – | – | – | – | – | – | – | – | –
B7 | 90 | 80 | 70 | 200 | 80 | 0.2 | 100 | 2 | – | – | – | – | – | – | – | – | – | –
B8 | 80 | – | 50 | 150 | 90 | 0.2 | 90 | 3 | – | – | – | – | – | – | – | – | – | –
B9 | 70 | – | 50 | 200 | 90 | 0.3 | 90 | 2 | – | – | – | – | – | – | – | – | – | –
B10 | 90 | – | 50 | 250 | 80 | 0.2 | 90 | 2 | – | – | – | – | – | – | – | – | – | –
